According to patent US20210032351A1 (XDCEXPLORER SHANGHAI, published 2021):

Tests used:
[1] = target: T1, human EGFRvIII-hFc protein (human, UniProt P00533 25-645); assay: ELISA, coated EGFRvIII-hFc, antibody 100 nM
T1 construct: extracellular domain; made in HEK293 cells, purified on protein A; also called immunogen A; hFc-tagged EGFRvIII protein; not shown: human IgG Fc fragment (hFc) of the pCpC vector
How it was run: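 Binding of purified EGFRvIII antibody was measured on plates coated overnight at 4° C with 1.0 μg/mL EGFRvIII-hFc. After BSA blocking, antibody and then an HRP-conjugated secondary were each incubated 2 h at 37° C, and signal was taken as A450 nm.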

[2] = target: T2, human EGFRvIII-hFc protein (human, UniProt P00533 25-645); assay: ELISA, EGFRvIII-hFc coated
T2 construct: extracellular domain; also called immunogen A; hFc-tagged EGFRvIII protein; not shown: human IgG Fc fragment (hFc) of the pCpC vector

[3] = target: T3, human EGFRvIII protein on the cell surface (human, UniProt P00533 25-1210); assay: FACS on CHOk1-EGFRvIII cells
T3 construct: whole, on cells; the cell line is named under assay; also called hEGFRvIII; U87MG-hEGFRvIII
Experimental: The desired cells are subjected to an expanded culture to 90% confluence in a T-75 cell culture flask; the medium is sucked out, and the cells are washed twice with a HBSS buffer (Hanks Balanced Salt Solution) (purchased from Invitrogen), and then treated with an enzyme-free cell dissociation solution (Versene solution: purchased from Life Technology) and collected. The cells are washed twice with the HBSS buffer and are counted, and then the cells are diluted with the HBSS buffer to 2×10⁶ cells/ml, added with 1% goat serum blocking solution, with the percentage being the mass percentage, and incubated on ice for 30 minutes, and then centrifugally washed twice with the HBSS buffer. The collected cells are suspended to 2×10⁶ cells/mL with an FACS buffer (HBSS+1% BSA, with the percentage being the mass percentage), added to a 96-well FACS reaction plate at 100 μL/well, then added with 100 μL/well of the purified EGFRvIII antibody (samples to be tested) obtained in example 2, and incubated on ice for 2 hours. The plate is centrifugally washed twice with the FACS buffer, added with 100 μL/well of a fluorescence (Alexa 488) labeled secondary antibody (purchased from Invitrogen), and then incubated on ice for 1 hour. The plate is centrifugally washed 3 times with the FACS buffer, added with 100 μL/well of a fixing solution [4% (v/v) paraformaldehyde] for suspending the cells, and centrifugally washed twice with the FACS buffer after 10 minutes. The cells are suspended in 100 μL of the FACS buffer, and the results are detected and analyzed by FACS (FACS Calibur, purchased from BD). Data analysis is performed by using the software (CellQuest) to obtain the mean fluorescence intensity (MFI) of the cells. Data is further analyzed by using the software (GraphPad Prism5) to perform data fitting and calculate EC50. […] A431 cells (human epidermal cell cancer cell lines) have a large amount of wild-type EGFR protein expressed on the surface thereof.

| Binder | OD450 nm [1] | EC50 [2] [nM] | Maximum OD450 value [2] [OD450] | OD450 nm at 0.0001 nM antibody [2] [OD450] | OD450 nm at 0.001 nM antibody [2] [OD450] | OD450 nm at 0.01 nM antibody [2] [OD450] | OD450 nm at 0.1 nM antibody [2] [OD450] | OD450 nm at 1 nM antibody [2] [OD450] | OD450 nm at 10 nM antibody [2] [OD450] | OD450 nm at 100 nM antibody [2] [OD450] | EC50 [3] [nM] | Maximum mean fluorescence intensity [3] [MFI] |
| --- | --- | --- | --- | --- | --- | --- | --- | --- | --- | --- | --- | --- |
| Murine anti-75G7 (antibody, V domains shown, murine hybridoma antibody; also called 75G7C6) VH: EVQLQQSGPELVKPGASVKIPCKASGYTFTDYNMDWVKQSHGKSLEWIGDINPNNGDTIYNQKFKGKATLTVDKSSSTAYMELRSLTSEDTAVYYCARGDYDGYYPVYYAMDYWGQGTSVTVSS VL: ENVLTQSPAIMSASPGEKVTMTCRASSSVSSSYLHWYQQKSGASPKLWIFSTSNLAAGVPARFSGSGSGTSYSLTVSSVEAEDAATYYCQQYSGYPLTFGAGTKLELK | 0.56 | – | – | – | – | – | – | – | – | – | – | – |
| Chimeric antibody 75G7 (antibody, human IgG1, V domains shown, also called c75G7C6; chimeric antibody c75G7C6) VH: EVQLQQSGPELVKPGASVKIPCKASGYTFTDYNMDWVKQSHGKSLEWIGDINPNNGDTIYNQKFKGKATLTVDKSSSTAYMELRSLTSEDTAVYYCARGDYDGYYPVYYAMDYWGQGTSVTVSS VL: ENVLTQSPAIMSASPGEKVTMTCRASSSVSSSYLHWYQQKSGASPKLWIFSTSNLAAGVPARFSGSGSGTSYSLTVSSVEAEDAATYYCQQYSGYPLTFGAGTKLELK | – | 0.02 | 3.03 | 0.07 | 0.08 | 0.15 | 0.65 | 2.69 | 3.41 | 3.44 | 10.5 | 112000 |
